The results in this text go back to the Immune Epitope Database (IEDB).

Holding throughout (assay): IEDB peptide-MHC binding, purified MHC/competitive/radioactivity; ≥ and ≤ were set here for values at or beyond the usual limits of such assays
Assay [1] concerns the target HLA-A*68:02.
The target in assay [2] is HLA-A*02:01.
The target in assay [3] is HLA-A*02:02.
The target of assay [4] is HLA-A*02:06.
Assay [5] addresses HLA-A*02:03.
[6] abbreviates: source organism: Vaccinia virus WR.

One may read the IC50 as the concentration that inhibits the measured activity by half. As for ETIEILRNYL, the IC50 stood at 0.13 nM in assay [1] (setting [6]); 944 nM in assay [2] (setting [6]); 474 nM in assay [3] (setting [6]); 0.28 nM in assay [4] (setting [6]); 1410 nM in assay [5] (setting [6]).

As to ETIQKDINIT, the IC50 in assay [1] (setting [6]) was 69 nM; in assay [2] (setting [6]) it was 1270 nM; in assay [3] (setting [6]), 354 nM; in assay [4] (setting [6]), 112 nM; in assay [5] (setting [6]), 10 nM.

ETLPELNLSL: the IC50 in assay [1] (setting [6]) worked out at 648 nM; in assay [2] (setting [6]), 1100 nM; in assay [3] (setting [6]) it was 52 nM; in assay [4] (setting [6]) it was 134 nM; in assay [5] (setting [6]), 130 nM.

On to EVERLMELPV, for which the IC50 in assay [1] (setting [6]) was 1220 nM; in assay [2] (setting [6]), 1980 nM; in assay [3] (setting [6]) it was 2460 nM; in assay [4] (setting [6]) it was 3630 nM; in assay [5] (setting [6]), 1430 nM.

For the sequence EVNDTHYTV, the IC50 in assay [1] (setting [6]) came out at 0.5 nM; in assay [2] (setting [6]), 3060 nM; in assay [3] (setting [6]), 133 nM; in assay [4] (setting [6]), 4770 nM; in assay [5] (setting [6]), 115 nM.

FAISYCRAFI: the IC50 in assay [1] (setting [6]) stood at 1.7 nM; in assay [2] (setting [6]), 1970 nM; in assay [3] (setting [6]), 105 nM; in assay [4] (setting [6]), 35 nM; in assay [5] (setting [6]), 38 nM.

For FIASAPQQL, the IC50 in assay [1] (setting [6]) is 35 nM; in assay [2] (setting [6]) it was 120 nM; in assay [3] (setting [6]) it was 2 nM; in assay [4] (setting [6]), 89 nM; in assay [5] (setting [6]), 4.4 nM.

As to FICNLLLLFV, the IC50 stood at 1070 nM in assay [1] (source organism: SARS-CoV1); 2.1 nM in assay [2] (source organism: SARS-CoV1); 2.5 nM in assay [3] (source organism: SARS-CoV1); 4 nM in assay [4] (source organism: SARS-CoV1); 15 nM in assay [5] (source organism: SARS-CoV1).

FIISTLNKI: the IC50 in assay [1] (setting [6]) amounted to 1500 nM; in assay [2] (setting [6]), 6.1 nM; in assay [3] (setting [6]), 1.6 nM; in assay [4] (setting [6]), 5.8 nM; in assay [5] (setting [6]), 0.42 nM.

Turning to FIMRNFLRSI, the IC50 stood at 131 nM in assay [1] (setting [6]); 0.47 nM in assay [2] (setting [6]); 28 nM in assay [3] (setting [6]); 0.45 nM in assay [4] (setting [6]); 0.12 nM in assay [5] (setting [6]).

In the case of FIPIIYSKA, the IC50 in assay [1] (setting [6]) is 78 nM; in assay [2] (setting [6]), 163 nM; in assay [3] (setting [6]), 0.56 nM; in assay [4] (setting [6]) it was 95 nM; in assay [5] (setting [6]), 1.8 nM.

Take FISIYSRPKI: the IC50 in assay [1] (setting [6]) is 592 nM; in assay [2] (setting [6]), 135 nM; in assay [3] (setting [6]), 23 nM; in assay [4] (setting [6]), 396 nM; in assay [5] (setting [6]) it was 102 nM.

For FISPASISSV, the 50% inhibitory concentration (IC50) in assay [1] (setting [6]) worked out at 17 nM; in assay [2] (setting [6]) it was 1.4 nM; in assay [3] (setting [6]), 3 nM; in assay [4] (setting [6]), 2 nM; in assay [5] (setting [6]) it was 0.11 nM.

With FISSFLLPLT, the half-inhibitory concentration (IC50) in assay [1] (setting [6]) was 982 nM; in assay [2] (setting [6]), 62 nM; in assay [3] (setting [6]) it was 39 nM; in assay [4] (setting [6]), 51 nM; in assay [5] (setting [6]) it was 44 nM.

Regarding FITVLTSVDI, the IC50 in assay [1] (setting [6]) worked out at 1240 nM; in assay [2] (setting [6]), 603 nM; in assay [3] (setting [6]), 1420 nM; in assay [4] (setting [6]), 1270 nM; in assay [5] (setting [6]), 237 nM.

FLAFLLFLV: the IC50 in assay [1] (source organism: SARS-CoV1) amounted to 66 nM; in assay [2] (source organism: SARS-CoV1) it was 8.3 nM; in assay [3] (source organism: SARS-CoV1) it was 1.8 nM; in assay [4] (source organism: SARS-CoV1), 9 nM; in assay [5] (source organism: SARS-CoV1) it was 58 nM.

Take FLAFLLFLVL: the IC50 in assay [1] (source organism: SARS-CoV1) was determined as 3810 nM; in assay [2] (source organism: SARS-CoV1) it was 11 nM; in assay [3] (source organism: SARS-CoV1) it was 13 nM; in assay [4] (source organism: SARS-CoV1), 2000 nM; in assay [5] (source organism: SARS-CoV1), 245 nM.

For the sequence FLAFVVFLL, the IC50 was found to be 391 nM in assay [1] (source organism: SARS-CoV1); 0.24 nM in assay [2] (source organism: SARS-CoV1); 0.41 nM in assay [3] (source organism: SARS-CoV1); 2.6 nM in assay [4] (source organism: SARS-CoV1); 88 nM in assay [5] (source organism: SARS-CoV1).

For the sequence FLAFVVFLLV, the IC50 in assay [1] (source organism: SARS-CoV1) worked out at 4320 nM; in assay [2] (source organism: SARS-CoV1) it was 78 nM; in assay [3] (source organism: SARS-CoV1) it was 2.4 nM; in assay [4] (source organism: SARS-CoV1), 2980 nM; in assay [5] (source organism: SARS-CoV1), 211 nM.

Take FLAHLQWFA: the IC50 in assay [1] (source organism: SARS-CoV1) was 17 nM; in assay [2] (source organism: SARS-CoV1) it was 0.1 nM; in assay [3] (source organism: SARS-CoV1), 0.1 nM; in assay [4] (source organism: SARS-CoV1), 0.57 nM; in assay [5] (source organism: SARS-CoV1), 0.21 nM.

On to FLCLFLLPSL, for which the IC50 was determined as 729 nM in assay [1] (source organism: SARS-CoV1); 0.33 nM in assay [2] (source organism: SARS-CoV1); 0.53 nM in assay [3] (source organism: SARS-CoV1); 0.37 nM in assay [4] (source organism: SARS-CoV1); 2.9 nM in assay [5] (source organism: SARS-CoV1).

Turning to FLDWIKDIMT, the half-maximal inhibitory concentration (IC50) was determined as 4860 nM in assay [1] (setting [6]); 50 nM in assay [2] (setting [6]); 424 nM in assay [3] (setting [6]); 140 nM in assay [4] (setting [6]); 146 nM in assay [5] (setting [6]).

With FLFLAWIML, the IC50 was found to be 1340 nM in assay [1] (source organism: SARS-CoV1); 6.4 nM in assay [2] (source organism: SARS-CoV1); 1.8 nM in assay [3] (source organism: SARS-CoV1); 37 nM in assay [4] (source organism: SARS-CoV1); 38 nM in assay [5] (source organism: SARS-CoV1).
